Measured values reported in US20110217282, “Novel Toxin-Antitoxin System” (UNIVERSITY OF MEDICINE AND DENTISTRY OF NEW JERSEY, published 2011).

B1: mqsR-ygiT palindrome 1 (dsDNA)
DNA 1: CCCCTAACTAACCTTTTAGGTGCTTTTCCCC
DNA 2: GGGGAAAAGCACCTAAAAGGTTAGTTAGGGG
B2: mqsR-ygiT palindrome 2 (dsDNA)
DNA 1: CCCAATTAACCTTTTAGGTTATAACCC
DNA 2: GGGTTATAACCTAAAAGGTTAATTGGG

Tests used:
MqsR = MqsR (Escherichia coli, UniProt Q46865 SEQ:1-98); assay: EMSA; no binding up to 80 nM; details: chain copies: 2 inferred; label: 5'-32P
Chain of MqsR (Q46865 whole entry): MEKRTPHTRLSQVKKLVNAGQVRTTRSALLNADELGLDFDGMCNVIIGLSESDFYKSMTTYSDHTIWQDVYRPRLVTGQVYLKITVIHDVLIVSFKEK

MqsR-YgiT complex [1] = biological target: T1, MqsR-YgiT complex (Escherichia coli, UniProt Q46865;Q46864 SEQ:1-98,SEQ:1-131); assay: EMSA; shift from 5 nM; stronger than YgiT alone; MqsR:YgiT 2:1; details: tags: N-terminal His on MqsR; chain copies: 4 MqsR + 2 YgiT inferred; label: 5'-32P
T1 sequence (Q46865 whole entry, chain 1 of 2): as the sequence (Q46865 whole entry) above
T1 sequence (Q46864 whole entry, chain 2 of 2): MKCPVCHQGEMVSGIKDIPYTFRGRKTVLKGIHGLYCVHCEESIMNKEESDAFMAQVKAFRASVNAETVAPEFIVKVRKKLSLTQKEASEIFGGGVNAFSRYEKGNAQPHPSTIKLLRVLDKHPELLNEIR

YgiT [2] = biological target: T2, YgiT (Escherichia coli, UniProt Q46864 SEQ:1-131); assay: EMSA; shift at 10 nM and higher, none at 5 nM; 50 mM Tris-HCl pH 7.2, 50 mM KCl, poly(dI-dC), 4 C; details: tags: C-terminal His; chain copies: 2 inferred; label: 5'-32P
T2 sequence (Q46864 whole entry): as the sequence (Q46864 whole entry, chain 2 of 2) above

YgiT [3] = biological target: T2, YgiT; assay: EMSA; shift at 20 nM and higher, none at 5 nM; 50 mM Tris-HCl pH 7.2, 50 mM KCl, poly(dI-dC), 4 C; details: tags: C-terminal His; chain copies: 2 inferred; label: 5'-32P
MqsR-YgiT complex [4] = biological target: T1, MqsR-YgiT complex; assay: EMSA; shift from 10 nM; stronger than YgiT alone; MqsR:YgiT 2:1; details: tags: N-terminal His on MqsR; chain copies: 4 MqsR + 2 YgiT inferred; label: 5'-32P

Row | Binder | binding result (MqsR) | binding result (MqsR-YgiT complex [1]) | binding result (YgiT [2]) | binding result (YgiT [3]) | binding result (MqsR-YgiT complex [4])
1 | B1 | no binding | binds | binds |  | 
2 | B2 | no binding |  |  | binds | binds
